From patent US20250339569A1 (3B PHARMACEUTICALS, published 2025)
Values belong to the binder of their own block, whether it stands above or below them. Starred links: 1 amine or outer side, 2 acyl side, 3 side chain; linkers in the order of their positions; H or OH if unused. Positions of bridges follow the written chain, without caps; N, C: chain ends. Non-standard residues stand in square brackets, D forms with d. Primed or numbered codes have the meaning given here. No end group written: not given here. *: point of attachment. Af3(Aytr) = 3-amino-L-phenylalanine, ring amine acylated with triazol-1-yl acetic acid bearing a 4-hydroxamic acid group, O=C(Cn1cc(C(=O)NO)nn1)Nc1cccc(C[C@H](N[*:1])C(=O)[*:2])c1; Af3(CMPy) = 3-amino-L-phenylalanine acylated on the ring amine with 5-cyano-1-methyl-1H-pyrazole-4-carboxylic acid, Cn1ncc(C(=O)Nc2cccc(C[C@H](N[*:1])C(=O)[*:2])c2)c1C#N; Af3(Hspy) = 3-amino-L-phenylalanine, ring amine acylated with 4-sulfamoyl-1H-pyrrole-2-carboxylic acid, NS(=O)(=O)c1c[nH]c(C(=O)Nc2cccc(C[C@H](N[*:1])C(=O)[*:2])c2)c1; Aph(Hsfu) = 4-amino-L-phenylalanine, ring amine acylated with 4-sulfamoylfuran-2-carboxylic acid, NS(=O)(=O)c1coc(C(=O)Nc2ccc(C[C@H](N[*:1])C(=O)[*:2])cc2)c1; Aph(HO-Succinyl) = 4-aminophenylalanine acylated on the ring amine with succinic acid (free carboxyl), O=C(CCC(=O)[*:3])Nc1ccc(C[C@H](N[*:1])C(=O)[*:2])cc1; Af3(PrHydr) = 3-amino-L-phenylalanine, ring amine acylated by 4-(hydroxycarbamoyl)butanoic acid, O=C(CCCC(=O)Nc1cccc(C[C@H](N[*:1])C(=O)[*:2])c1)NO; Af3(DkpAc) = 3-amino-L-phenylalanine acylated on the ring amine with 2-(3,6-dioxopiperazin-2-yl)acetic acid; Ttds(4) = 1,13-diamino-4,7,10-trioxatridecan-succinamic acid spacer, O=C(CCC(=O)[*:2])NCCCOCCOCCOCCCN[*:1]; Af3(Btda) = 3-amino-L-phenylalanine, ring amine acylated by benzothiadiazine-7-carboxylic acid; Phe(3-NHCO(CH2)3SO2NH2) = N[C@@H](Cc1cccc(NC(=O)CCCS(N)(=O)=O)c1)C(=O)O; APAc″ = 2-(4-(amino)piperidin-1-yl)acetic acid, NC1CCN(CC(=O)*)CC1; DOTA = O=C(O)CN1CCN(CC(=O)O)CCN(CC(=O)*)CCN(CC(=O)O)CC1; Biotin = O=C1N[C@H]2[C@H](CS[C@H]2CCCCC(=O)*)N1; PPAc = 4-carboxymethyl piperazine linker; mXylylene = c1cc(C[*:1])cc(C[*:2])c1; Af3(Aype) = not defined here; Af3(Hytr) = not defined here; Aph(Aybu) = not defined here; APAc = not defined here; Dap = NC[C@H](N)C(=O)O; AEEA = NCCOCCOCC(=O)O

Legend:
[1] = target: human carbonic anhydrase 9 (CAIX) (human, UniProt Q16790 38-459); assay: FACS competition on HT-29 cells, competitor tracer 3BP-4149; category A = pIC50 >8.0
Experimental: (§1) CAIX-expressing human HT-29 colorectal cancer cells (DSMZ, RRID: CVCL_0320) were cultured in McCoys's 5A modified medium (Biochrom, #F1015) including 10% fetal calf serum (FCS), 2 mM L-glutamine, 100 U/ml penicillin and 100 μg/mL streptomycin. Cells were detached with Accutase (Biolegend, #423201) and washed in FACS buffer (PBS including 1% FCS). Cells were diluted in FACS buffer to a final concentration of 500.000 cells per ml. 200 μL of the cell suspension were transferred to a u-shaped non-binding 96-well plate (Greiner) and cells were washed in ice-cold FACS buffer.
(§2) When biotinylated compounds were used an additional incubation step with 1 μg/mL APC-Streptavidin (Miltenyi; #130-106-791) in 50 μL FACS buffer for 30 minutes on ice was performed.
(§3) Cells were washed twice with ice-cold FACS buffer and analyzed in an Attune NxT flow cytometer (Thermo Fisher). Median fluorescence intensities (MFI) of the APC/Cy5-channel were calculated by Attune NxT software.

[2] = target: human carbonic anhydrase 9 (CAIX) (human, UniProt Q16790 38-459); assay: FACS binding assay on CAIX-expressing HT-29 cells, biotinylated compound detected with APC-streptavidin; pEC50 category (A = pEC50 >8.0)
Experimental: as §1, §2, §3

[3] = target: T1, Fc-fusion protein of human carbonic anhydrase IX (human, UniProt Q16790 38-414); assay: SPR, captured hCAIX-Fc; pKD category B: 7.1-8.0
Experimental: (§4) Stock solutions of test compounds were prepared by dissolving each compound in DMSO. DMSO stock solution were diluted 1:1000 in Running Buffer without DMSO. […] SPR binding analyses were performed in Single Cycle Kinetic (SCK) mode at 25° C.
(§5) For each test compound, SPR raw data in the form of resonance units (RU) were plotted as sensorgrams using the Biacore™ T200 control software. The signal from the blank sensorgram was subtracted from that of the test compound sensorgram (blank corrected). The blank corrected sensorgram was corrected for baseline drift by subtracting the sensorgram of a SCK run without the test compound (running buffer only). […] Raw data and fit results were imported as text files in IDBS. The pKD value (negative decadic logarithm of dissociation constant) was calculated in the IDBS excel template.

[4] = target: T1, Fc-fusion protein of human carbonic …; assay: SPR, captured hCAIX-Fc; t1/2 category D: <=2.0 min
Experimental: as §4, §5

[5] = target: T1, Fc-fusion protein of human carbonic …; assay: SPR, captured hCAIX-Fc; pKD category A: >8.0
[6] = target: T1, Fc-fusion protein of human carbonic …; assay: SPR, captured hCAIX-Fc; t1/2 category A: >15.0 min
[7] = target: T2, human carbonic anhydrase IX (CAIX) (human, UniProt Q16790 38-459); assay: FACS competition, HT-29 cells, tracer 3BP-2776; pIC50 category B: 7.1-8.0
Experimental: as §1, §2, §3

[8] = target: T1, Fc-fusion protein of human carbonic …; assay: SPR, captured hCAIX-Fc; t1/2 category C: 2.1-5.0 min
[9] = target: T2, human carbonic anhydrase IX (CAIX); assay: FACS competition, HT-29 cells, tracer 3BP-2776; pIC50 category C: 6.1-7.0
Experimental: as §1, §2, §3

[10] = target: T2, human carbonic anhydrase IX (CAIX); assay: FACS competition, HT-29 cells, tracer 3BP-4149; pIC50 category C: 6.1-7.0
Experimental: as §1, §2, §3

B1: 3BP-4264 (peptide)
peptide: {DOTA}-VDCE[dP]DWLTW[Dap]C-NH2
modifications: lactam 2-11; linker 3-12 via mXylylene
SMILES: CC(C)C[C@@H]1NC(=O)[C@H](Cc2c[nH]c3ccccc23)NC(=O)[C@H](CC(=O)O)NC(=O)[C@H]2CCCN2C(=O)[C@H](CCC(=O)O)NC(=O)[C@@H]2CSCc3cccc(c3)CSC[C@@H](C(N)=O)NC(=O)[C@H](CNC(=O)C[C@H](NC(=O)[C@@H](NC(=O)CN3CCN(CC(=O)O)CCN(CC(=O)O)CCN(CC(=O)O)CC3)C(C)C)C(=O)N2)NC(=O)[C@H](Cc2c[nH]c3ccccc23)NC(=O)[C@H]([C@@H](C)O)NC1=O
pIC50 [1]: > 8 pic50

B3: 3BP-4338 (peptide)
peptide: DCE[dP]DWLTW[Dap]C-NH2
modifications: lactam 1-10; linker 2-11 via mXylylene; not fully specified (N-terminus); also: indium complexed by DOTA
pIC50 [1]: > 8 pic50

Binder: {DOTA-APAc″}-VYCE[dP]D[Aph(HO-Succinyl)]LTWSC-NH2 (linker 3-12 via mXylylene) [3BP-4356]
pKD [3]: 7.1 to 8 pkd
t1/2 (half-life of the complex, SPR) [4]: ≤ 2 min

Binder: {DOTA-PPAc}-DCE[dP]D[Phe(3-NHCO(CH2)3SO2NH2)]LTW[Dap]C-NH2 (lactam 1-10; linker 2-11 via mXylylene) [3BP-4497]
pKD [5]: > 8 pkd
t1/2 (half-life of the complex, SPR) [6]: > 15 min
pIC50 [7]: 7.1 to 8 pic50

Binder: {DOTA-PPAc}-QCE[dP]D[Af3(PrHydr)]LTWSC-NH2 (linker 2-11 via mXylylene) [3BP-4515]
t1/2 (half-life of the complex, SPR) [8]: 2.1 to 5 min
pIC50 [7]: 7.1 to 8 pic50

B4: 3BP-3869 (peptide)
peptide: {DOTA-AEEA}-YCE[dP]DWLTWSC-NH2
modifications: linker 2-11 via mXylylene
SMILES: CC(C)C[C@@H]1NC(=O)[C@H](Cc2c[nH]c3ccccc23)NC(=O)[C@H](CC(=O)O)NC(=O)[C@H]2CCCN2C(=O)[C@H](CCC(=O)O)NC(=O)[C@@H](NC(=O)[C@H](Cc2ccc(O)cc2)NC(=O)COCCOCCNC(=O)CN2CCN(CC(=O)O)CCN(CC(=O)O)CCN(CC(=O)O)CC2)CSCc2cccc(c2)CSC[C@@H](C(N)=O)NC(=O)[C@H](CO)NC(=O)[C@H](Cc2c[nH]c3ccccc23)NC(=O)[C@H]([C@@H](C)O)NC1=O
pKD [3]: 7.1 to 8 pkd
t1/2 (half-life of the complex, SPR) [8]: 2.1 to 5 min

B5: 3BP-4337 (peptide)
peptide: VDCE[dP]DWLTW[Dap]C-NH2
modifications: lactam 2-11; linker 3-12 via mXylylene; not fully specified (N-terminus); also: indium complexed by DOTA
pIC50 [1]: > 8 pic50

Binder: {DOTA-APAc″}-VYCE[dP]D[Af3(DkpAc)]LTWSC-NH2 (linker 3-12 via mXylylene) [3BP-4288]
pKD [3]: 7.1 to 8 pkd
t1/2 (half-life of the complex, SPR) [4]: ≤ 2 min

Binder: {DOTA-PPAc}-QCE[dP]D[Af3(Hspy)]LTWSC-NH2 (linker 2-11 via mXylylene) [3BP-4789]
pKD [3]: 7.1 to 8 pkd
t1/2 (half-life of the complex, SPR) [8]: 2.1 to 5 min
pIC50 [7]: 7.1 to 8 pic50

Binder: {DOTA-Gab}-DCE[dP]DWLTW[Dap]C-NH2 (lactam 10-1; linker 2-11 via mXylylene) [3BP-4263]
pIC50 [1]: > 8 pic50

Binder: {DOTA-APAc″}-VYCE[dP]D[Af3(CMPy)]LTWSC-NH2 (linker 3-12 via mXylylene) [3BP-4305]
pKD [3]: 7.1 to 8 pkd
t1/2 (half-life of the complex, SPR) [4]: ≤ 2 min

Binder: {DOTA-APAc}-VYCE[dP]D[Af3(Btda)]LTWSC-NH2 (linker 3-12 via mXylylene; reading uncertain) [3BP-4415]
pIC50 [10]: 6.1 to 7 pic50

Continued, values first:

pEC50 [2]: > 8 pec50
B2: 3BP-2776: H-Met-Val-Tyr-[Cys(3MeBn)-Glu-Gly-Asp-Trp-Leu-Thr-Trp-Gln-Cys]-Ttds-Lys(Bio)-NH2 (peptide)
peptide: H-MVYCEGDWLTWQC[Ttds(4)]K(Biotin)-NH2
modifications: linker 4-13 via mXylylene
SMILES: CSCC[C@H](N)C(=O)N[C@H](C(=O)N[C@@H](Cc1ccc(O)cc1)C(=O)N[C@H]1CSCc2cccc(c2)CSC[C@@H](C(=O)NCCCOCCOCCOCCCNC(=O)CCC(=O)N[C@@H](CCCCNC(=O)CCCC[C@@H]2SC[C@@H]3NC(=O)N[C@@H]32)C(N)=O)NC(=O)[C@H](CCC(N)=O)NC(=O)[C@H](Cc2c[nH]c3ccccc23)NC(=O)[C@H]([C@@H](C)O)NC(=O)[C@H](CC(C)C)NC(=O)[C@H](Cc2c[nH]c3ccccc23)NC(=O)[C@H](CC(=O)O)NC(=O)CNC(=O)[C@H](CCC(=O)O)NC1=O)C(C)C
notes: Cyclic peptide, biotinylated

pIC50 [9]: 6.1 to 7 pic50
Binder: {DOTA-PPAc}-QCE[dP]D[Af3(Aytr)]LTWSC-NH2 (linker 2-11 via mXylylene) [3BP-4847]

pIC50 [9]: 6.1 to 7 pic50
Binder: {DOTA-PPAc}-QCE[dP]D[Af3(Hytr)]LTWSC-NH2 (linker 2-11 via mXylylene; reading uncertain) [3BP-4882]

pEC50 [2]: > 8 pec50
B6: 3BP-2778: H-Met-Arg-[Cys(3MeBn)-Glu-Ile-Trp-Val-Asp-Gly-Trp-Val-Asp-Cys]-Ttds-Lys(Bio)-NH2 (peptide)
peptide: H-MRCEIWVDGWVDC[Ttds(4)]K(Biotin)-NH2
modifications: linker 3-13 via mXylylene
SMILES: CC[C@H](C)[C@@H]1NC(=O)[C@H](CCC(=O)O)NC(=O)[C@@H](NC(=O)[C@H](CCCNC(=N)N)NC(=O)[C@@H](N)CCSC)CSCc2cccc(c2)CSC[C@@H](C(=O)NCCCOCCOCCOCCCNC(=O)CCC(=O)N[C@@H](CCCCNC(=O)CCCC[C@@H]2SC[C@@H]3NC(=O)N[C@@H]32)C(N)=O)NC(=O)[C@H](CC(=O)O)NC(=O)[C@H](C(C)C)NC(=O)[C@H](Cc2c[nH]c3ccccc23)NC(=O)CNC(=O)[C@H](CC(=O)O)NC(=O)[C@H](C(C)C)NC(=O)[C@H](Cc2c[nH]c3ccccc23)NC1=O
notes: Cyclic peptide, biotinylated

pEC50 [2]: > 8 pec50
B7: 3BP-2777: H-Met-Val-Tyr-[Cys(3MeBn)-Glu-Gly-Ser-Trp-Leu-Gly-Trp-Ser-Cys]-Ttds-Lys(Bio)-NH2 (peptide)
peptide: H-MVYCEGSWLGWSC[Ttds(4)]K(Biotin)-NH2
modifications: linker 4-13 via mXylylene
SMILES: CSCC[C@H](N)C(=O)N[C@H](C(=O)N[C@@H](Cc1ccc(O)cc1)C(=O)N[C@H]1CSCc2cccc(c2)CSC[C@@H](C(=O)NCCCOCCOCCOCCCNC(=O)CCC(=O)N[C@@H](CCCCNC(=O)CCCC[C@@H]2SC[C@@H]3NC(=O)N[C@@H]32)C(N)=O)NC(=O)[C@H](CO)NC(=O)[C@H](Cc2c[nH]c3ccccc23)NC(=O)CNC(=O)[C@H](CC(C)C)NC(=O)[C@H](Cc2c[nH]c3ccccc23)NC(=O)[C@H](CO)NC(=O)CNC(=O)[C@H](CCC(=O)O)NC1=O)C(C)C
notes: Cyclic peptide, biotinylated

pKD [3]: 7.1 to 8 pkd
t1/2 (half-life of the complex, SPR) [8]: 2.1 to 5 min
pIC50 [7]: 7.1 to 8 pic50
Binder: {DOTA-PPAc}-QCE[dP]D[Aph(Hsfu)]LTWSC-NH2 (linker 2-11 via mXylylene) [3BP-4813]

pIC50 [9]: 6.1 to 7 pic50
Binder: {DOTA-PPAc}-QCE[dP]D[Af3(Aype)]LTWSC-NH2 (linker 2-11 via mXylylene; reading uncertain) [3BP-4886]

pIC50 [9]: 6.1 to 7 pic50
Binder: {DOTA-PPAc}-QCE[dP]D[Aph(Aybu)]LTWSC-NH2 (linker 2-11 via mXylylene; reading uncertain) [3BP-4884]
